According to publication PMC1764428, “Secretion and properties of a hybrid Kluyveromyces lactis-Aspergillus niger β-galactosidase” (Microbial Cell Factories, 2006):

Substrate: O=[N+]([O-])c1ccccc1O[C@@H]1O[C@H](CO)[C@H](O)[C@H](O)[C@H]1O
Test: o-nitrophenol release, Lineweaver-Burk
Type: biochemical, Kluyveromyces lactis
Conditions: crude extract (30 μg protein); buffer Z with 1.6 mM MgSO4; ONPG 2-12 mM

B1: native K. lactis β-galactosidase (pSPGK1-LAC4) (Kluyveromyces lactis NRRL Y-1140) (protein)
chain: MSCLIPENLRNPKKVHENRLPTRAYYYDQDIFESLNGPWAFALFDAPLDAPDAKNLDWETAKKWSTISVPSHWELQEDWKYGKPIYTNVQYPIPIDIPNPPTVNPTGVYARTFELDSKSIESFEHRLRFEGVDNCYELYVNGQYVGFNKGSRNGAEFDIQKYVSEGENLVVVKVFKWSDSTYIEDQDQWWLSGIYRDVSLLKLPKKAHIEDVRVTTTFVDSQYQDAELSVKVDVQGSSYDHINFTLYEPEDGSKVYDASSLLNEENGNTTFSTKEFISFSTKKNEETAFKINVKAPEHWTAENPTLYKYQLDLIGSDGSVIQSIKHHVGFRQVELKDGNITVNGKDILFRGVNRHDHHPRFGRAVPLDFVVRDLILMKKFNINAVRNSHYPNHPKVYDLFDKLGFWVIDEADLETHGVQEPFNRHTNLEAEYPDTKNKLYDVNAHYLSDNPEYEVAYLDRASQLVLRDVNHPSIIIWSLGNEACYGRNHKAMYKLIKQLDPTRLVHYEGDLNALSADIFSFMYPTFEIMERWRKNHTDENGKFEKPLILCEYGHAMGNGPGSLKEYQELFYKEKFYQGGFIWEWANHGIEFEDVSTADGKLHKAYAYGGDFKEEVHDGVFIMDGLCNSEHNPTPGLVEYKKVIEPVHIKIAHGSVTITNKHDFITTDHLLFIDKDTGKTIDVPSLKPEESVTIPSDTTYVVAVLKDDAGVLKAGHEIAWGQAELPLKVPDFVTETAEKAAKINDGKRYVSVESSGLHFILDKLLGKIESLKVKGKEISSKFEGSSITFWRPPTNNDEPRDFKNWKKYNIDLMKQNIHGVSVEKGSNGSLAVVTVNSRISPVVFYYGFETVQKYTIFANKINLNTSMKLTGEYQPPDFPRVGYEFWLGDSYESFEWLGRGPGESYPDKKESQRFGLYDSKDVEEFVYDYPQENGNHTDTHFLNIKFEGAGKLSIFQKEKPFNFKISDEYGVDEAAHACDVKRYGRHYLRLDHAIHGVGSEACGPAVLDQYRLKAQDFNFEFDLAFE
notes: expressed in K. lactis MW190-9B (lac4-8); crude cell-free extract
With B1 as the protein, how does the Km read?
Its Km is 1500 µM.
